Source: article PMC6650136, “Awakening the Sleeping Carboxylase Function of Enzymes: Engineering the Natural CO2-Binding Potential of Reductases” (Journal of the American Chemical Society, 2019)

Test system: C=CC(=O)SCCNC(=O)CCNC(=O)[C@H](O)C(C)(C)COP(=O)(O)OP(=O)(O)OC[C@H]1O[C@@H](n2cnc3c(N)ncnc32)[C@H](O)[C@@H]1OP(=O)(O)O
Assay: purified protein
Details: apparent; kcat at 4.4 mM CO2, combined reduction and carboxylation
Source text: steady-state kinetics, Michaelis-Menten fit on PCSEN_ΔDH (propionyl-CoA synthase, reductase domain activity)

Row | Substance | Km | kcat
1 | PCSEN_ΔDH (propionyl-CoA synthase, reductase domain activity) (Erythrobacter sp. NAP1; E1027Q) | 0.014 ± 0.002 mM | 7.4 ± 1.0 s⁻¹
2 | PCSEN_ΔDH (propionyl-CoA synthase, reductase domain activity) (Erythrobacter sp. NAP1; E1027Q/T1753M) | 0.0197 ± 0.0012 mM | 6.5 ± 0.6 s⁻¹
3 | PCSEN_ΔDH (propionyl-CoA synthase, reductase domain activity) (Erythrobacter sp. NAP1; D1302S/E1027Q/T1753M) | 0.026 ± 0.003 mM | 0.46 ± 0.03 s⁻¹
4 | PCSEN_ΔDH (propionyl-CoA synthase, reductase domain activity) (Erythrobacter sp. NAP1; D1302S/E1027Q) | 0.027 ± 0.003 mM | 1.77 ± 0.09 s⁻¹
